Experimental data reported in patent US20230277625A1 (SIMCHA IL 18, published 2023).
Changes are numbered by the printed parent chain.

Columns and labels:
[1] = target: T1, Human IL-18Rα ectodomain (amino acids 19-329), biotinylated (human, UniProt Q13478 19-329, biotin on the AviTag (BirA ligase)); experiment: SPR; average of 2 studies
T1 construct: range 19-329; Secreted from insect cells (gp67 signal peptide removed); also called hIL-18Rα; hIL18Rα
T1 sequence: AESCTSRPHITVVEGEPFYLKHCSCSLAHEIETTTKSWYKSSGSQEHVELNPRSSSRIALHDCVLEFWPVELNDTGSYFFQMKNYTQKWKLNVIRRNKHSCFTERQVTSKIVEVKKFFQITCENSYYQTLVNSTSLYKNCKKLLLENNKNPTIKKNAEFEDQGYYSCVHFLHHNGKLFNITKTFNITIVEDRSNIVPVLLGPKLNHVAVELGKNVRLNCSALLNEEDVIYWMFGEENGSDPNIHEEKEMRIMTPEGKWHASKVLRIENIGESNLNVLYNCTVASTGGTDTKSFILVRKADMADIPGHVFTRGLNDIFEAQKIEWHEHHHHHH

[2] = target: T2, Human IL-18BP (amino acids 31-194), biotinylated (human, UniProt O95998 31-194, biotin on the AviTag (BirA ligase) where used biotinylated); experiment: SPR; average of 2 studies
T2 construct: Soluble decoy receptor; also called hIL-18BP; recombinant IL-18BP
T2 sequence: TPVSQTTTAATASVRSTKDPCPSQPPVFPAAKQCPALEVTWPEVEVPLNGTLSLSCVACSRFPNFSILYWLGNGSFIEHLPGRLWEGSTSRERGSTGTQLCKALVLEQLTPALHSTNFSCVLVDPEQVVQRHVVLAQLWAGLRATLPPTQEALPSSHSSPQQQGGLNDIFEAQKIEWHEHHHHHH

[3] = target: T2, Human IL-18BP (amino acids 31-194), …; experiment: SPR; KD ratio relative to WT IL-18
Procedure: (§1) Experiments were conducted using a Biacore T100 and carried out at 25° C. Biotinylated IL-18Rα or IL-18BP were immobilized onto a Biacore biotin capture chip (Series S CAP sensor chip, GE Healthcare) to yield an Rmax of ˜50 RU (IL-18Rα) or ˜10 RU (IL-18BP). Measurements were made with serial dilutions of the IL-18 variants in HEPES buffered Saline-P+buffer (10 mM HEPES pH 7.4, 150 mM NaCl, 0.005% surfactant P20). The surface was regenerated by three 60-sec injections of regeneration buffer (3/4 (v/v) 8M guanidine hydrochloride with 1/4 (v/v) 1M sodium hydroxide). Experiments were performed in multiple channels simultaneously for increased observations. All data were analyzed with the Biacore T100 evaluation software version 2.0 with a 1:1 Langmuir binding model.
(§2) To additionally characterize the receptor binding activities of the DR-IL-18 variants, the cytokines were expressed recombinantly and surface plasmon resonance for IL-18Rα and IL-18BP was performed (see FIG. 5B for representative traces).

[4] = target: T2, Human IL-18BP (amino acids 31-194), …; experiment: SPR; KD for IL-18BP over KD for IL-18Rα
Procedure: as §1, §2

[5] = target: T2, Human IL-18BP (amino acids 31-194), …; experiment: on-yeast binding isotherm (flow cytometry)
[6] = target: T2, Human IL-18BP (amino acids 31-194), …; experiment: SPR; KD(IL-18BP)/KD(IL-18Rα) normalized to WT IL-18
[7] = target: T2, Human IL-18BP (amino acids 31-194), …; experiment: on-yeast binding isotherms; KD ratio relative to WT IL-18
[8] = target: T2, Human IL-18BP (amino acids 31-194), …; experiment: on-yeast binding isotherms; KD for IL-18BP over KD for IL-18Rα
[9] = target: T2, Human IL-18BP (amino acids 31-194), …; experiment: SPR (Biacore T100), IL-18BP captured via biotin, IL-18 as analyte
Procedure: as §1, §2

[10] = target: T2, Human IL-18BP (amino acids 31-194), …; experiment: on-yeast binding isotherm (flow cytometry); members per FIG. 5A legend
Procedure: (§3) Individual colonies of IL-18 yeast were grown overnight at 30° C. in SDCAA liquid media and induced in SGCAA liquid media for 1 day at 20° C. IL-18 display levels on yeast were verified by flow cytometry using an anti-cMyc tag antibody (anti-myc-PE; Cell Signaling Technologies). Receptor staining with biotinylated IL-18Rα (with or without IL-18R β) or biotinylated IL-18BP was performed in PBS supplemented with 0.5% BSA and 2 mM EDTA (PBE) on ice. All analysis was performed on a Sony SA3800 flow cytometer.
as §2

[11] = target: T1, Human IL-18Rα ectodomain (amino acids …); experiment: SPR (Biacore T100), receptor captured via biotin, IL-18 as analyte
Procedure: as §1, §2

[12] = target: T2, Human IL-18BP (amino acids 31-194), …; experiment: on-yeast binding isotherm (flow cytometry), drawn summary table, column IL18BP (KD)
Procedure: as §3

[13] = target: T1, Human IL-18Rα ectodomain (amino acids …); experiment: on-yeast binding isotherm (flow cytometry), drawn summary table, IL18Rα (KD)
In short: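 Yeast displaying IL-18 variants were grown at 30 °C, then induced 1 day at 20 °C, with display checked by anti-myc-PE. Cells were stained on ice with biotinylated IL-18Rα (± IL-18Rβ) or biotinylated IL-18BP in PBS/0.5% BSA/2 mM EDTA. Binding was read by flow cytometry.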

[14] = target: T2, Human IL-18BP (amino acids 31-194), …; experiment: SPR, immobilized biotinylated hIL-18BP, representative sensorgram FIG. 5B; representative sensorgram, FIG. 5B; single run, not the average
Procedure: (§4) By contrast, very little binding is observed with the same variants and hIL-18BP (right).
as §1

[15] = target: T2, Human IL-18BP (amino acids 31-194), …; experiment: SPR, single-cycle injections of 1.5, 4.5, 13.5, 40.5 and 121.5 nM over immobilized biotinylated hIL-18BP; the sheet prints two constants, KD1 and KD2 (KD2 = 15.2 nM is the value in the text)
Procedure: as §4, §1

[16] = target: T2, Human IL-18BP (amino acids 31-194), …; experiment: SPR; average of 2 studies; SPR, average of 2 studies
[17] = target: T2, Human IL-18BP (amino acids 31-194), …; experiment: SPR; KD ratio relative to WT IL-18; SPR; ratio normalized to WT
Procedure: as §1, §2

[18] = target: T2, Human IL-18BP (amino acids 31-194), …; experiment: SPR; KD for IL-18BP over KD for IL-18Rα; SPR; ratio of two measured KD
Procedure: as §1, §2

[19] = target: T2, Human IL-18BP (amino acids 31-194), …; experiment: on-yeast binding isotherms; 20 µM used for NBD; yeast-displayed variant; ratio computed with 20 µM put in for NBD
[20] = target: T2, Human IL-18BP (amino acids 31-194), …; experiment: on-yeast binding isotherms; KD ratio relative to WT IL-18; yeast-displayed variant; ratio normalized to WT, from the 20 µM placeholder
[21] = target: T2, Human IL-18BP (amino acids 31-194), …; experiment: SPR (Biacore T100), IL-18BP captured via biotin, IL-18 as analyte; SPR, recombinant soluble variant, biotinylated hIL-18BP on the chip
Procedure: as §1, §2

B1: SEQ ID NO: 34 (human DR-IL-18 variant hCS1) (ligand)
chain: YFGKLESKLSVIRNLNDQVLFIDQGNRPLFEDMTDSDCRDNAPRTIFIISTYKDSQPRGKAVTISVKCEKISTLSCENKIISFKEMNPPDNIKDTKSDIIFFQRDVPGHKHKMQFESSSYEGYFLACEKERDLFKLILKKEDELGDRSIMFTVQNED
notes: Engineered variant
**Q.** What does the source list for B1?
**A.** Kd [1]: 8 nM; Kd [2]: 11.8 nM; Dissociation Constant Ratio normalized to WT IL-18 [3]: 3720; KD ratio IL-18BP/IL-18Rα [4]: 2.41; Kd [5]: 19300 nM; IL-18 BP:Rα Dissociation Constant Ratio [6]: 3020; Dissociation Constant Ratio normalized to WT IL-18 [7]: 1020; KD ratio IL-18BP/IL-18Rα [8]: 300; Kd [9]: 19.4 nM; EC50 [10]: > 1000 nM; Kd [11]: 8.05 nM; Kd [12]: 710 nM; Kd [13]: 146 nM; Kd [14]: 15.2 nM; KD1 (first of two fitted dissociation constants) [15]: 36.7 nM

B2: SEQ ID NO: 37 (human DR-IL-18 variant hCS4) (ligand)
chain: B1 chain with Y1R, K53R, D105N, H111Y
notes: Engineered variant
**Q.** With B2 as the binder, how does the Kd [1] read?
**A.** Its Kd is 7.7 nM.

**Q.** And the “IL-18 BP:Rα Dissociation Constant Ratio” value [6]?
**A.** The value was 32200.

**Q.** And the Kd [16]?
**A.** The Kd was 121 nM.

**Q.** What about the “Dissociation Constant Ratio normalized to WT IL-18” value [17] of the same binder?
**A.** Its value is 64500.

**Q.** And the EC50 [10]?
**A.** The EC50 was over 1000 nM.

**Q.** What about the Kd [11] of the same binder?
**A.** Its Kd is 4.38 nM.

**Q.** What about the “KD ratio IL-18BP/IL-18Rα” value [18] of the same binder?
**A.** Its value is 41.8.

**Q.** What about the “KD ratio IL-18BP/IL-18Rα” value [19] of the same binder?
**A.** Its value is over 125.

**Q.** What about the “Dissociation Constant Ratio normalized to WT IL-18” value [20] of the same binder?
**A.** Its value is over 424.

**Q.** And the Kd [21]?
**A.** Its Kd is 183 nM.
